Laboratory results taken from patent publication US20230312724A1 (KADMON, published 2023).

T1: mouse B7-H4 expressed on cells (mouse, UniProt Q7TSP5 25-257)
T1 construct: also called cellular mB7-H4; mB7-H4/CT26
T1 sequence: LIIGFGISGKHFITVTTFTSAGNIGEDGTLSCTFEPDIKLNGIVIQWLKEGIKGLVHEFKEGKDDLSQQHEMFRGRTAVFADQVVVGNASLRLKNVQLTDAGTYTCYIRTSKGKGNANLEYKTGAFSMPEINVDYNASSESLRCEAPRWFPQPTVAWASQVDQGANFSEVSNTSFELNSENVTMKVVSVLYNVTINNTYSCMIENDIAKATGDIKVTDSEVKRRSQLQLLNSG

T2: hB7-H4 (soluble human B7-H4, construct not named) (human, UniProt Q7Z7D3 25-259, limits assumed)
T2 construct: also called soluble hB7-H4
T2 sequence: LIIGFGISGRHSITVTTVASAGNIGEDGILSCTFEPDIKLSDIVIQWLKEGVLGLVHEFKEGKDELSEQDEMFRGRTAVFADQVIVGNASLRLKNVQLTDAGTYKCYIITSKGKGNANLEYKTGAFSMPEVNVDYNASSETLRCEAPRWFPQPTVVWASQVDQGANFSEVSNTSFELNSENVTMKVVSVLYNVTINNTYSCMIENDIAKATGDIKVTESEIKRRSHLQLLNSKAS

T3: mouse B7-H4-his (mouse, UniProt Q7TSP5 25-257)
T3 construct: also called mB7-H4-his; mB7-H4-His; not shown: his tag
T3 sequence: T1 sequence

T4: human B7-H4-his (human, UniProt Q7Z7D3 25-259)
T4 construct: also called hB7-H4-his; hB7-H4 his; not shown: his tag
T4 sequence: T2 sequence

B1: 39A11/57G8 (antibody, human IgG1, V domains shown)
VH: EVQLLESGGGLVQPGGSLRLSCAASGFTFSSYGMHWVRQAPGKGLEWVASISSSSGYIYYADSVKGRFTISRDNSKNTLYLQMNSLRAEDTAVYYCARASSGMDVWGQGTTVTVSS
VL: DIQMTQSPSSLSASVGDRVTITCRASQSIRSYLNWYQQKPGKAPKLLIYYASSLQSGVPSRFSGSGSGTDFTLTISSLQPEDFATYYCQQYYSTPLTFGQGTKVEIK
notes: 39A11 VH with 57G8 VL
B2: Control antibody 1 (antibody 20502 described in US20190085080A1) (antibody, V domains shown)
VH: QLQLQESGPGLVKPSETLSLTCTVSGGSIKSGSYYWGWIRQPPGKGLEWIGNIYYSGSTYYNPSLRSRVTISVDTSKNQFSLKLSSVTAADTAVYYCAREGSYPNQFDPWGQGTLVTVSS
VL: EIVMTQSPATLSVSPGERATLSCRASQSVSSNLAWYQQKPGQAPRLLIYGASTRATGIPARFSGSGSGTEFTLTISSLQSEDFAVYYCQQYHSFPFTFGGGTKVEIK
notes: also called (+) control Ab1; (+) Ab1

Key:
[1] = target: T1, mouse B7-H4 expressed on cells; assay: flow cytometry, mB7-H4/CT26 cells
Method in brief: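 Cell-surface binding read by flow cytometry: cells (1×10⁶/ml, cold FACS buffer) + serial dilutions of antibody or fusion protein, 1 h, 4 °C; 3 washes; secondary Ab 1:200, 30 min, 4 °C, dark.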

[2] = target: T2, hB7-H4 (soluble human B7-H4, construct …); assay: ELISA, hB7-H4
Method in brief: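 Coat: B7-H4-Fc or his-tagged protein, ~1-2 μg/ml, 4° C overnight. Block 3% PBS+milk; serial antibody dilutions 1-1.5 h RT; wash PBS-T (0.05%); HRP anti-hFab; TMB, 1N H₂SO₄ stop; OD450. EC50 from dose-response fit.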

[3] = target: T2, hB7-H4 (soluble human B7-H4, construct …); assay: SPR (Biacore)
Method in brief: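 Kinetic constants came from a 1:1 Langmuir fit of binding at 25 °C in HBS-EP, pH 7.4. Analyte (100 nM to 0.1 nM) flowed for 180 s, then dissociated for 1000 or 1200 s, over amine-coupled human B7-H4-Fc, human B7-H4-his or mouse B7-H4-Fc surfaces at 50-100 RU.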

mouse B7-H4-his = target: T3, mouse B7-H4-his; assay: ELISA on coated mB7-H4-his
Method: (§1) About 1-2 μg/ml of human or mouse B7-H4-Fc (or his-tagged) was immobilized on ELISA plates (Immuno 2HB, Thermo scientific, cat #3455) at 4° C. overnight. After blocking the plates with 3% PBS+milk, serial diluted antibodies were added to the blocked plates and incubated at RT for 1-1.5 h. After washing the plates with PBS-T (0.05%), horse radish peroxidase (HRP)-conjugated antibody targeting the hFab was added to the plate. Signals were developed by adding 3,3′,5,5′-Tetramethylbenzidine (TMB (followed 1N of H₂SO₄ to stop the reaction. The OD at 450 nm was read by ELISA plate reader (Infinite M1000 from TECAN). GraphPad from Prism was used to plot OD450 vs. antibody concentration curve and to calculate the EC50 values.

human B7-H4-Fc [4] = target: T5, human B7-H4-Fc (human); assay: ELISA, coated hB7-H4-Fc
T5 construct: also called hB7-H4-Fc; hB7-H4 Fc
T5 sequence (chain, as listed by the source): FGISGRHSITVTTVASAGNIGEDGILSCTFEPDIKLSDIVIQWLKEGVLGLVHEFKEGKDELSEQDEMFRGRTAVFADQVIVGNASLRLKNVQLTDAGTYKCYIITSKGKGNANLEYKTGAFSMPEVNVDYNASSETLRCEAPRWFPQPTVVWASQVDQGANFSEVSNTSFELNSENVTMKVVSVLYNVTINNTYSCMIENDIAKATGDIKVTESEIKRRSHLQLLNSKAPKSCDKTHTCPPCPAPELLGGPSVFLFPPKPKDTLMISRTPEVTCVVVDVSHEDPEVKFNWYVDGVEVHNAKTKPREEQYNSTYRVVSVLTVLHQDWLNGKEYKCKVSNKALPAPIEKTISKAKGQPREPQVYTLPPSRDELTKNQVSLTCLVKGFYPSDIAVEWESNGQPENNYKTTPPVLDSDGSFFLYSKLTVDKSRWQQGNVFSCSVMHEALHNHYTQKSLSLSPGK
Method: (§2) ELISA experiments were performed to determine binding to hB7-H4-Fc (FIG. 5A), hB7-H4-his (FIG. 5B), mB7-H4-Fc domain (FIG. 5C), hB7-H4 IgV domain (FIG. 5D), and hB7-H4 IgC domain (FIG. 5E). Flow cytrometry experiments were performed to determine binding to CHO cells expressing hB7-H4 (FIG. 5F) or mB7-H4 (FIG. 5G). […] A cross-reactive IgV binding antibody and an IgC binding antibody were used as controls.
as §1

[5] = target: T6, IgV domain of human B7-H4-Fc (human); assay: ELISA on coated IgV domain of hB7-H4
T6 construct: also called hB7-H4 IgV domain
T6 sequence (chain, as listed by the source): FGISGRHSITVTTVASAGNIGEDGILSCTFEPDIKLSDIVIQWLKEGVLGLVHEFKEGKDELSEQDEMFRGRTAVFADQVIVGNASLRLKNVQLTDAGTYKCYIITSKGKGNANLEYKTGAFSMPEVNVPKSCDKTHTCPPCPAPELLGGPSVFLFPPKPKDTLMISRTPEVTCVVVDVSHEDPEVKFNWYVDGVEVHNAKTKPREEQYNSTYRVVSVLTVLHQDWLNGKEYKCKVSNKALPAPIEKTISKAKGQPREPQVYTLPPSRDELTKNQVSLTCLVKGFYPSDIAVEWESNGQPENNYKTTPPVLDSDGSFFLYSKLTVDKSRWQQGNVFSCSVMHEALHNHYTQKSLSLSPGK
Method: as §1

human B7-H4-Fc [6] = target: T5, human B7-H4-Fc; assay: ELISA on coated hB7-H4-Fc
Method: as §1

[7] = target: T6, IgV domain of human B7-H4-Fc; assay: ELISA, coated hB7-H4 IgV domain
Method: as §2, §1

mouse B7-H4-Fc = target: T7, mouse B7-H4-Fc (mouse; human); assay: ELISA, coated mB7-H4-Fc (title on the sheet: Binding to mB7H4-Fc)
T7 construct: also called mB7-H4-Fc; mB7-H4-hFc
T7 sequence (chain, as listed by the source): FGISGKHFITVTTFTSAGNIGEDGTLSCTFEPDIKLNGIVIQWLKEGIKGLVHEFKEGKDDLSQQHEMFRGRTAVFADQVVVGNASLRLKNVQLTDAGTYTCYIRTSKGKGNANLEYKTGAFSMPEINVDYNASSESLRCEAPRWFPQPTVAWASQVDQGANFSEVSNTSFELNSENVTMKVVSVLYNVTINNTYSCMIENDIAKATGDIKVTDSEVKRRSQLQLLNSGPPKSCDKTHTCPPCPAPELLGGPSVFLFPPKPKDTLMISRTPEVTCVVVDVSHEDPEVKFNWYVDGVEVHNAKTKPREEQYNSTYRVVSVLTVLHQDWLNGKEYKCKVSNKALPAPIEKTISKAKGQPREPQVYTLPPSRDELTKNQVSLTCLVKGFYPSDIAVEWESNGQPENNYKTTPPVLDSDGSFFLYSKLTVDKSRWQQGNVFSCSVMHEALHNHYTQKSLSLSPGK
Method: ELISA experiments were performed to determine binding to hB7-H4-Fc (FIG. 4A), hB7-H4-his (FIG. 4B), hB7-H4 IgV domain (FIG. 4C), and mB7-H4 IgV domain (FIG. 4D). Flow cytrometry experiments were performed to determine binding to CHO cells expressing hB7-H4 (FIG. 4E) or mB7-H4 (FIG. 4F). […] A cross-reactive IgV binding antibody was used as a control.
as §1

human B7-H4-his = target: T4, human B7-H4-his; assay: ELISA, coated hB7-H4-his
Method: as §1

Row | Binder | EC50 [1] [nM] | EC50 [2] [nM] | Kd [3] [nM] | EC50 (read off the curve) (mouse B7-H4-his) [nM] | EC50 (read off the curve) (human B7-H4-Fc [4]) [nM] | EC50 (read off the curve) [5] [nM] | EC50 (read off the curve) (human B7-H4-Fc [6]) [nM] | EC50 (read off the curve) [7] [nM] | EC50 (read off the curve) (mouse B7-H4-Fc) [µg/mL] | EC50 (read off the curve) (human B7-H4-his) [nM]
1 | B1 | 1.22 | 0.068 | 0.303 | – | – | – | – | – | – | –
2 | B2 | – | – | – | ~0.2 | ~0.07 | ~0.2 | ~0.1 | ~0.2 | ~0.02 | ~0.2
